Assay results as given in article PMC7383614, “Computational Design of Enantiocomplementary Epoxide Hydrolases for Asymmetric Synthesis of Aliphatic and Aromatic Diols” (Chembiochem, 2020).

What was measured:
Experiment in all cases: initial velocities of diol formation, Michaelis-Menten fit
Assay type in all cases: biochemical, Rhodococcus erythropolis
Settings in all cases: buffer and temperature of kinetics not given (activity assays: 50 mM HEPES pH 8, 30 °C)
[1] = substrate: C1CC2OC2C1
Description: (§1) initial velocities of diol formation, Michaelis-Menten fit on LEH-P (thermostable limonene epoxide hydrolase)

[2] = substrate: C[C@@H]1O[C@@H]1C
Description: as §1

[3] = substrate: c1ccc([C@H]2O[C@H]2c2ccccc2)cc1
Description: as §1

[4] = variant 43A, single measurement, margin from average coefficient of variation

B1: LEH-P (thermostable limonene epoxide hydrolase) (Rhodococcus erythropolis; A19K/E45K/N92K/S15P/T2A/T76K/T85V/Y96F) (protein)
chain: MASKIEQPRWASKDPAAGKASTPDEKIVLEFMDALTSNDAAKLIKYFAEDTMYQNMPLPPAYGRDAVEQTLAGLFKVMSIDAVEVFHIGSSKGLVFTERVDVLRALPTGKSYNLSILGVFQLTEGKITGWRDYFDLREFEEAVDLPLRG
notes: N-terminal hexa-His tag; expressed in E. coli; dimeric
With B1 the Km [1] was 4200 ± 200 µM, the kcat [1] was 0.035 ± 0.004 s⁻¹ and the kcat/Km [1] was 7.9 M⁻¹ s⁻¹. The Km [2] was 18000 ± 1000 µM, the kcat [2] was 0.056 ± 0.01 s⁻¹ and the kcat/Km [2] was 3.1 M⁻¹ s⁻¹. For the same protein, the Km [3] was 370 ± 20 µM, the kcat [3] was 0.147 ± 0.012 s⁻¹ and the kcat/Km [3] was 406 M⁻¹ s⁻¹.

B2: LEH-P (thermostable limonene epoxide hydrolase) (Rhodococcus erythropolis; A19K/E45K/F139L/I116V/I80F/L103I/M32A/M78I/N92K/S15P/T2A/T76K/T85V/Y96F) (protein)
chain: MASKIEQPRWASKDPAAGKASTPDEKIVLEFADALTSNDAAKLIKYFAEDTMYQNMPLPPAYGRDAVEQTLAGLFKVISFDAVEVFHIGSSKGLVFTERVDVIRALPTGKSYNLSVLGVFQLTEGKITGWRDYFDLRELEEAVDLPLRG
notes: as for B1
For B2, the Km ([1]; variant 24A) was 3000 ± 200 µM, the kcat ([1]; variant 24A) was 0.005 ± 0.001 s⁻¹ and the kcat/Km ([1]; variant 24A) was 1.9 M⁻¹ s⁻¹.

B3: LEH-P (thermostable limonene epoxide hydrolase) (Rhodococcus erythropolis; A19K/E45K/F139L/I80W/L103V/L35G/M32L/N92K/S15P/T2A/T76K/T85V/Y96F) (protein)
chain: MASKIEQPRWASKDPAAGKASTPDEKIVLEFLDAGTSNDAAKLIKYFAEDTMYQNMPLPPAYGRDAVEQTLAGLFKVMSWDAVEVFHIGSSKGLVFTERVDVVRALPTGKSYNLSILGVFQLTEGKITGWRDYFDLRELEEAVDLPLRG
notes: as for B1
Protein B3 has a Km ([3]; variant 60A) of 60 ± 10 µM, a kcat ([3]; variant 60A) of 0.052 ± 0.006 s⁻¹ and a kcat/Km ([3]; variant 60A) of 890 M⁻¹ s⁻¹.

B4: LEH-P (thermostable limonene epoxide hydrolase) (Rhodococcus erythropolis; A19K/E45K/I116F/L103I/L114M/L35M/M32L/M78I/N92K/S15P/T2A/T76K/T85V/Y96F) (protein)
chain: MASKIEQPRWASKDPAAGKASTPDEKIVLEFLDAMTSNDAAKLIKYFAEDTMYQNMPLPPAYGRDAVEQTLAGLFKVISIDAVEVFHIGSSKGLVFTERVDVIRALPTGKSYNMSFLGVFQLTEGKITGWRDYFDLREFEEAVDLPLRG
notes: as for B1
With B4 the Km ([3]; variant 52A) was 160 ± 30 µM, the kcat ([3]; variant 52A) was 0.003 ± 0.001 s⁻¹ and the kcat/Km ([3]; variant 52A) was 19 M⁻¹ s⁻¹.

B5: LEH-P (thermostable limonene epoxide hydrolase) (Rhodococcus erythropolis; A19K/E45K/F134Y/F139W/L103V/L74I/N92K/S15P/T2A/T76K/T85V/Y96F) (protein)
chain: MASKIEQPRWASKDPAAGKASTPDEKIVLEFMDALTSNDAAKLIKYFAEDTMYQNMPLPPAYGRDAVEQTLAGIFKVMSIDAVEVFHIGSSKGLVFTERVDVVRALPTGKSYNLSILGVFQLTEGKITGWRDYYDLREWEEAVDLPLRG
notes: as for B1
With B5 the Km [1, 4] was 35000 ± 4000 µM, the kcat [1, 4] was 0.017 ± 0.005 s⁻¹ and the kcat/Km [1, 4] was 0.48 M⁻¹ s⁻¹.

B6: LEH-P (thermostable limonene epoxide hydrolase) (Rhodococcus erythropolis; A19K/E45K/F139L/I116F/L103I/L114M/L35M/M32L/N92K/S15P/T2A/T76K/T85V/Y96F) (protein)
chain: MASKIEQPRWASKDPAAGKASTPDEKIVLEFLDAMTSNDAAKLIKYFAEDTMYQNMPLPPAYGRDAVEQTLAGLFKVMSIDAVEVFHIGSSKGLVFTERVDVIRALPTGKSYNMSFLGVFQLTEGKITGWRDYFDLRELEEAVDLPLRG
notes: as for B1
In the case of B6, the Km ([3]; variant 41B) is reported as 190 ± 20 µM, the kcat ([3]; variant 41B) is reported as 0.002 ± 0.001 s⁻¹ and the kcat/Km ([3]; variant 41B) is reported as 10.5 M⁻¹ s⁻¹.
